Results: the Human Domainome abundance scans (Beltran et al. 2025)

B1: Androgen receptor, residues 557 to 632; numbered along this chain, P10275 (parent)
chain: QKTCLICGDEASGCHYGALTCGSCKVFFKRAAEGKQKYLCASRNDCTIDKFRRKNCPSCRLRKCYEAGMTLGARKL

Variants of: B1
Assay: abundance fitness (aPCA) (normalised: wild type 0, dead -1); higher = more abundant; growth selection in yeast, the domain comes from the species named
Conditions: Homo sapiens

Abundance fitness: each site, then its substitutions
D45: W -0.465; Q 0.176; A -0.094; K 0.101; S -0.275; M -0.206; L -0.177; Y -0.176; N 0.009; P -0.221; G -0.162; E -0.037; T -0.091; V -0.12; C -0.325; F -0.498; I -0.07
T47: Q -0.075; D -0.017; C -0.077; P 0.007; G -0.079; L -0.041; W -0.244; S -0.015; M -0.086; I -0.03; Y -0.071; H -0.026; N -0.067; E -0.059; F -0.077; R -0.108
G72: K -0.134; V -0.062; L -0.062; Q 0.089; D 0.098; W -0.076; C -0.075; H -0.046; S -0.092; Y -0.074; E 0.126; T -0.056; R -0.009; F 0.06; A -0.011; N -0.136
K63: L -0.111; T -0.033; Y -0.704; H -0.423; R -0.079; F -0.347; S -0.227; C -0.143; E 0.009; Q -0.084; A -0.141; N -0.127; M -0.133; D -0.283; P -0.949; V -0.142; G -0.4; I -0.146; W -0.482
C40: V -0.693; S -0.713; G -0.891; Y -1.13; D -1.14; E -0.576; K -0.632; P -0.756; I -0.948; R -0.798; Q -0.482; T -0.554; W -1.16
A73: D -0.026; F -0.326; E 0.013; C -0.297
C64: V -0.879; M -0.125; T -0.553; A -0.306; G -0.606; R -1.06; K -0.805; N -0.505; L -0.592; F -0.745
P57: R -0.1; Q -0.095; Y -0.03; E 0.044; I -0.167; L -0.075; V -0.037; W 0; K -0.043; D 0.1; M -0.09; H 0.02; C 0.088; A -0.011; T -0.111; F -0.024
D49: K -0.317; M -0.448; R -0.342; C -0.538; P -0.482; Y -0.634; E -0.066; F -0.613; W -0.402; I -0.283; T -0.165; A -0.283; V -0.512; L -0.502; S -0.139; N -0.188; H -0.382; G -0.197
T70: I -0.344
L71: D -0.185; T 0.073; Y -0.043; R -0.25; A -0.142; N -0.129; W -0.151; V -0.085; H -0.164; G -0.128; Q -0.043; I -0.021; F 0.103; K 0.041; E -0.114; M 0.115; P -0.15
A41: F -0.113; K -0.368; L -0.047; H -0.279; N -0.165; C -0.18; S -0.041; M -0.186; P -0.12; G -0.091; I -0.275; R -0.051; T -0.056; Y 0.044; D 0.041; W -0.187; Q -0.081; E -0.079; V 0.01
G68: D -0.581
